Laboratory results reported in the supplement of paper PMC10126150.
± gives the standard deviation of the averaged measurements.

The sequences below were run on ATP (assay: switch fluorescence ratio, 500 uM ATP over buffer (Cy3 cluster intensity, sum of 5 cycles each) (fold (ratio)); higher = stronger signal-on switching upon ATP binding; sequences stand for … in TCGTCGGCAGCGTCAGATGTGTATAAGAGACAGTTTTTTTTTTTTTTTTTTTTTTTTT…TC). Details: aptamer strand: ATP DNA aptamer (quencher-CACCTGGGGGAGTATTGCGGAGGAAGG + anchor), 100 nM annealed; ATP concentration: 500 uM.
In short: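 The quencher-labelled ATP aptamer, at 100 nM, was annealed to Cy3-labelled switching-strand clusters on a modified Illumina MiSeq flow-cell. The clusters were imaged in selection buffer, then after 15 min with 500 uM ATP at 22 °C, and this buffer/ATP cycle ran five times with NaOH stripping and re-annealing between runs. Per-cluster fluorescence ratios, summed target-cycle over summed buffer-cycle Cy3 intensity, were averaged per switch-domain sequence. Clusters outside 100-1000 RFU were excluded.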
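Further: ATP exposure 15 min at 22 °C before imaging.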

| Sequence | switch fluorescence ratio |
| --- | --- |
| GGGATTGTAA | 0.982 ± 0.021 |
| GGGATTTCTG | 1.03 ± 0.04 |
| GGGATTTGCA | 0.9758 ± 0.0075 |
| GGGATTTTAA | 0.9753 ± 0.0091 |
| GGGCAAATTC | 1.08 ± 0.02 |
| GGGCAAATTG | 0.968 ± 0.028 |
| GGGCAACTGG | 1.11 ± 0.15 |
| GGGCAAGTTA | 1.009 ± 0.007 |
| GGGCAATGTC | 1.39 ± 0.072 |
| GGGCACTTTG | 1.0204 ± 0.00091 |
| GGGCAGACCA | 1.01 ± 0.011 |
| GGGCAGCCCG | 0.98 ± 0.014 |
| GGGCAGGATG | 1.05 ± 0.039 |
| GGGCAGGGGC | 1 ± 0.025 |
| GGGCAGGGGT | 1.45 ± 0.84 |
| GGGCAGGGTA | 0.9883 ± 0.0076 |
| GGGCAGGGTT | 0.999 ± 0.03 |
| GGGCATAACT | 1.04 ± 0.044 |
| GGGCATAATG | 1.02 ± 0.041 |
| GGGCATAGTT | 0.97 ± 0.018 |
| GGGCATCATG | 1.04 ± 0.011 |
| GGGCATCTAG | 0.9863 ± 0.0013 |
| GGGCATGAAA | 1.02 ± 0.021 |
| GGGCATGTCG | 1.13 ± 0.013 |
| GGGCATTGGG | 0.996 ± 0.043 |

| Sequence | switch fluorescence ratio |
| --- | --- |
| GGGCCAAGGG | 1.01 ± 0.022 |
| GGGCCACCGA | 0.975 ± 0.0041 |
| GGGCCACGTA | 0.971 ± 0.082 |
| GGGCCAGCTT | 0.988 ± 0.016 |
| GGGCCAGGGG | 1.21 ± 0.067 |
| GGGCCAGGGT | 1.02 ± 0.0054 |
| GGGCCATGGA | 1.05 ± 0.099 |
| GGGCCCGATT | 0.976 ± 0.037 |
| GGGCCCGGCG | 0.973 ± 0.049 |
| GGGCCCTGTT | 1.03 ± 0.021 |
| GGGCCGGGAC | 0.961 ± 0.01 |
| GGGCCTAGGA | 1.028 ± 0.0069 |
| GGGCCTGCGC | 1 ± 0.015 |
| GGGCCTGCTT | 0.97 ± 0.052 |
| GGGCCTGGGT | 1 ± 0.017 |
| GGGCCTGGTC | 1.02 ± 0.032 |
| GGGCCTTTAG | 1.02 ± 0.033 |
| GGGCGAAAAA | 0.987 ± 0.054 |
| GGGCGAATGG | 1.02 ± 0.029 |
| GGGCGCACGG | 0.992 ± 0.039 |
| GGGCGCCAGG | 1.33 ± 0.66 |
| GGGCGCGGGG | 1.01 ± 0.023 |
| GGGCGGAGGG | 0.998 ± 0.027 |
| GGGCGGCCGT | 1.02 ± 0.044 |
| GGGCGGGGAT | 1.01 ± 0.018 |

| Sequence | switch fluorescence ratio |
| --- | --- |
| GGGCGGGGCT | 0.994 ± 0.016 |
| GGGCGGGGGC | 1.02 ± 0.056 |
| GGGCGTAACT | 0.991 ± 0.041 |
| GGGCGTGGTG | 1.03 ± 0.011 |
| GGGCGTGTTG | 1.027 ± 0.01 |
| GGGCTAGTCG | 1.01 ± 0.034 |
| GGGCTATTTG | 0.978 ± 0.013 |
| GGGCTATTTT | 0.991 ± 0.031 |
| GGGCTCAACT | 0.9946 ± 0.0053 |
| GGGCTCTATC | 0.9913 ± 0.0025 |
| GGGCTCTGAC | 1.049 ± 0.0084 |
| GGGCTCTTGC | 0.98 ± 0.068 |
| GGGCTGATCT | 1.04 ± 0.045 |
| GGGCTGCATT | 1.01 ± 0.011 |
| GGGCTGGAAT | 1 ± 0.02 |
| GGGCTTGCAG | 0.9812 ± 0.0089 |
| GGGCTTGGGT | 1.08 ± 0.12 |
| GGGCTTGGTA | 1 ± 0.014 |
| GGGCTTGTGC | 0.987 ± 0.071 |
| GGGCTTTAAA | 1.01 ± 0.012 |
| GGGGAAACCT | 2.21 ± 0.77 |
| GGGGAAAGCA | 1 ± 0.015 |
| GGGGAAAGGG | 1 ± 0.034 |
| GGGGAAAGGT | 0.989 ± 0.029 |
| GGGGAACAGG | 1.05 ± 0.06 |

| Sequence | switch fluorescence ratio |
| --- | --- |
| GGGGAACCAT | 1.01 ± 0.039 |
| GGGGAACGGG | 1 ± 0.027 |
| GGGGAAGACG | 1.01 ± 0.082 |
| GGGGAAGCGA | 1.09 ± 0.038 |
| GGGGAAGCTT | 1.04 ± 0.055 |
| GGGGAAGTCT | 0.984 ± 0.093 |
| GGGGAAGTGG | 1 ± 0.026 |
| GGGGAATACG | 1.11 ± 0.048 |
| GGGGAATAGG | 0.9962 ± 0.0084 |
| GGGGAATCTA | 0.997 ± 0.022 |
| GGGGAATGAT | 0.98 ± 0.021 |
| GGGGACGAGT | 0.99779 ± 0.00098 |
| GGGGACGGCA | 1.01 ± 0.046 |
| GGGGACGGTG | 1.03 ± 0.048 |
| GGGGACTGAG | 0.983 ± 0.029 |
| GGGGACTTTC | 1.03 ± 0.017 |
| GGGGAGAAAG | 0.9964 ± 0.0029 |
| GGGGAGAGCG | 1.01 ± 0.034 |
| GGGGAGAGGA | 0.987 ± 0.037 |
| GGGGAGAGGG | 0.984 ± 0.029 |
| GGGGAGCGCG | 0.981 ± 0.035 |
| GGGGAGCGGG | 0.99834 ± 0.00014 |
| GGGGAGCGTC | 1.01 ± 0.032 |
| GGGGAGGCCA | 0.963 ± 0.031 |
| GGGGAGGCTG | 0.971 ± 0.039 |

| Sequence | switch fluorescence ratio |
| --- | --- |
| GGGGAGGGGT | 1.01 ± 0.054 |
| GGGGAGTGCG | 0.969 ± 0.01 |
| GGGGAGTGG | 1.01 ± 0.025 |
| GGGGATAACG | 0.981 ± 0.012 |
| GGGGATAATT | 1.05 ± 0.025 |
| GGGGATATGG | 1.01 ± 0.039 |
| GGGGATGAAG | 0.994 ± 0.014 |
| GGGGATGGGG | 1.02 ± 0.044 |
| GGGGATTTGC | 0.969 ± 0.023 |
| GGGGCACGGG | 1.02 ± 0.034 |
| GGGGCAGCGT | 0.999 ± 0.043 |
| GGGGCAGGAG | 1.01 ± 0.06 |
| GGGGCAGGTT | 0.977 ± 0.038 |
| GGGGCATTGG | 0.99 ± 0.011 |
| GGGGCCATGG | 0.9123 ± 0.006 |
| GGGGCCCACG | 1.002 ± 0.006 |
| GGGGCCCCGT | 1.016 ± 0.0043 |
| GGGGCCCGGC | 0.904 ± 0.013 |
| GGGGCCGTAA | 0.992 ± 0.025 |
| GGGGCCTTTA | 0.9592 ± 0.0049 |
| GGGGCGAAGG | 0.999 ± 0.038 |
| GGGGCGACGT | 0.977 ± 0.023 |
| GGGGCGAGG | 0.994 ± 0.053 |
| GGGGCGGGGC | 1.01 ± 0.014 |
| GGGGCGTATC | 1.01 ± 0.04 |

| Sequence | switch fluorescence ratio |
| --- | --- |
| GGGGCGTGCG | 1.01 ± 0.02 |
| GGGGCGTTGG | 0.993 ± 0.033 |
| GGGGCGTTTG | 0.961 ± 0.057 |
| GGGGCTACTT | 1.02 ± 0.013 |
| GGGGCTATCA | 0.9712 ± 0.0081 |
| GGGGCTATCT | 1.33 ± 0.42 |
| GGGGCTATGG | 1.02 ± 0.045 |
| GGGGCTCATG | 0.99 ± 0.014 |
| GGGGCTCTCG | 0.99 ± 0.012 |
| GGGGCTTAAA | 1.04 ± 0.047 |
| GGGGCTTAGC | 1.02 ± 0.046 |
| GGGGCTTGGT | 1.01 ± 0.034 |
| GGGGGAAGAA | 1 ± 0.028 |
| GGGGGAAGCC | 0.98 ± 0.024 |
| GGGGGAATAC | 2.26 ± 0.5 |
| GGGGGACCGT | 1.01 ± 0.024 |
| GGGGGACGAC | 0.969 ± 0.035 |
| GGGGGACTCT | 0.986 ± 0.041 |
| GGGGGACTGA | 0.991 ± 0.03 |
| GGGGGACTGC | 1.01 ± 0.048 |
| GGGGGAGACG | 1.03 ± 0.075 |
| GGGGGAGATG | 0.992 ± 0.028 |
| GGGGGAGCGG | 0.992 ± 0.033 |
| GGGGGAGGTG | 1.03 ± 0.048 |
| GGGGGAGTCT | 1.11 ± 0.087 |

| Sequence | switch fluorescence ratio |
| --- | --- |
| GGGGGAGTGC | 1.06 ± 0.12 |
| GGGGGAGTTT | 1.01 ± 0.011 |
| GGGGGATCCG | 0.983 ± 0.019 |
| GGGGGATGTG | 1.012 ± 0.004 |
| GGGGGATTGC | 1.02 ± 0.066 |
| GGGGGCACGT | 1.017 ± 0.0074 |
| GGGGGCAGAT | 0.97 ± 0.018 |
| GGGGGCAGGG | 0.998 ± 0.065 |
| GGGGGCATTA | 0.999 ± 0.016 |
| GGGGGCCAGC | 1.01 ± 0.02 |
| GGGGGCCCCA | 1.01 ± 0.022 |
| GGGGGCCCGG | 1.03 ± 0.045 |
| GGGGGCGCCA | 1.02 ± 0.02 |
| GGGGGCGGTT | 1.02 ± 0.026 |
| GGGGGCTGCG | 1.04 ± 0.051 |
| GGGGGGAAGC | 1.04 ± 0.064 |
| GGGGGGAGCT | 1.02 ± 0.057 |
| GGGGGGAGGG | 1 ± 0.052 |
| GGGGGGAGTA | 1.01 ± 0.056 |
| GGGGGGCCGG | 0.996 ± 0.033 |
| GGGGGGCGAG | 0.9864 ± 0.0052 |
| GGGGGGCGGA | 1.01 ± 0.039 |
| GGGGGGCGTC | 1.02 ± 0.016 |
| GGGGGGCTTT | 0.986 ± 0.022 |
| GGGGGGGAGC | 1.01 ± 0.033 |

| Sequence | switch fluorescence ratio |
| --- | --- |
| GGGGGGGATG | 0.991 ± 0.029 |
| GGGGGGGGAA | 1.01 ± 0.063 |
| GGGGGGGGAT | 1.01 ± 0.029 |
| GGGGGGGGTG | 1.02 ± 0.068 |
| GGGGGGGGTT | 1 ± 0.042 |
| GGGGGGGTGT | 1.01 ± 0.05 |
| GGGGGGTAAT | 1.01 ± 0.026 |
| GGGGGGTACA | 1.01 ± 0.047 |
| GGGGGGTAGC | 0.9761 ± 0.0061 |
| GGGGGGTATA | 1 ± 0.048 |
| GGGGGGTCCG | 1.01 ± 0.074 |
| GGGGGGTCCT | 1 ± 0.018 |
| GGGGGGTCGG | 1 ± 0.024 |
| GGGGGGTCTG | 1 ± 0.037 |
| GGGGGGTGAA | 1.02 ± 0.012 |
| GGGGGGTGAC | 1 ± 0.035 |
| GGGGGGTGGA | 1.01 ± 0.028 |
| GGGGGGTGGT | 0.978 ± 0.025 |
| GGGGGGTTCA | 1.01 ± 0.026 |
| GGGGGGTTCG | 0.978 ± 0.021 |
| GGGGGTACTA | 0.96 ± 0.019 |
| GGGGGTCCTC | 1.001 ± 0.01 |
| GGGGGTCGTT | 1.02 ± 0.051 |
| GGGGGTGAAG | 0.971 ± 0.016 |
| GGGGGTGTGT | 1.01 ± 0.035 |
